From US20080213270

Tested on: Neurotensin (1-13)

neurolysin (NLN), mouse mast cell-associated
NT degradation by A23187-activated BMCMCs transduced with shRNA (percentage of NT remaining): mMC-CPA- or NL-shRNA-transduced BMCMCs also exhibited significantly reduced ability to degrade NT after activation with A23187 (5 uM)
NT degradation by membrane or cytosol preparations of mouse BMCMCs (percentage of NT remaining): either membrane or cytosol preparations of mouse BMCMCs degraded NT, an ability that was almost completely inhibited by the NLN inhibitor, Pro-Ile (10 mM)
